Data taken from PMC2861611 (Molecular Biology of the Cell, 2010).

Target: T1, GST-PDZK1 tail (human, UniProt Q5T2W1 459-519)
T1 sequence (looked up): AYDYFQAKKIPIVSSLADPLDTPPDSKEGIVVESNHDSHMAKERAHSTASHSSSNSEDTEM
Assay: pull-down

amount precipitated relative to full-length EBP50 (1-358): 2.4 times
B1: EBP50 (1-354) (domain or fragment, UniProt O14745 1-354, looked up)
chain: MSADAAAGAPLPRLCCLEKGPNGYGFHLHGEKGKLGQYIRLVEPGSPAEKAGLLAGDRLVEVNGENVEKETHQQVVSRIRAALNAVRLLVVDPETDEQLQKLGVQVREELLRAQEAPGQAEPPAAAEVQGAGNENEPREADKSHPEQRELRPRLCTMKKGPSGYGFNLHSDKSKPGQFIRSVDPDSPAEASGLRAQDRIVEVNGVCMEGKQHGDVVSAIRAGGDETKLLVVDRETDEFFKKCRVIPSQEHLNGPLPVPFTNGEIQKENSREALAEAALESPRPALVRSASSDTSEELNSQDSPPKQDSTAPSSTSSSDPILDFNISLAMAKERAHQKRSSKRAPQMDWSKKNEL
